From patent publication US20090029467A1
Where two headings read alike, the source gives them in different places.

B1: CHO GUS (enzyme, UniProt P08236 23-651, looked up)
chain: LQGGMLYPQESPSRECKELDGLWSFRADFSDNRRRGFEEQWYRRPLWESGPTVDMPVPSSFNDISQDWRLRHFVGWVWYEREVILPERWTQDLRTRVVLRIGSAHSYAIVWVNGVDTLEHEGGYLPFEADISNLVQVGPLPSRLRITIAINNTLTPTTLPPGTIQYLTDTSKYPKGYFVQNTYFDFFNYAGLQRSVLLYTTPTTYIDDITVTTSVEQDSGLVNYQISVKGSNLFKLEVRLLDAENKVVANGTGTQGQLKVPGVSLWWPYLMHERPAYLYSLEVQLTAQTSLGPVSDFYTLPVGIRTVAVTKSQFLINGKPFYFHGVNKHEDADIRGKGFDWPLLVKDFNLLRWLGANAFRTSHYPYAEEVMQMCDRYGIVVIDECPGVGLALPQFFNNVSLHHHMQVMEEVVRRDKNHPAVVMWSVANEPASHLESAGYYLKMVIAHTKSLDPSRPVTFVSNSNYAADKGAPYVDVICLNSYYSWYHDYGHLELIQLQLATQFENWYKKYQKPIIQSEYGAETIAGFHQDPPLMFTEEYQKSLLEQYHLGLDQKRRKYVVGELIWNFADFMTEQSPTRVLGNKKGIFTRQRQPKSAAFLLRERYWKIANETRYPHSVAKSQCLENSLFT

Experiments:
Assay in all cases: cell-based or functional assay
[1] = molecular target: cation-independent mannose-6-phosphate/IGF-II receptor on GM4668 human skin fibroblasts (human) (UniProt P11717)
Sequence of UniProt P11717 (P11717 41-2491): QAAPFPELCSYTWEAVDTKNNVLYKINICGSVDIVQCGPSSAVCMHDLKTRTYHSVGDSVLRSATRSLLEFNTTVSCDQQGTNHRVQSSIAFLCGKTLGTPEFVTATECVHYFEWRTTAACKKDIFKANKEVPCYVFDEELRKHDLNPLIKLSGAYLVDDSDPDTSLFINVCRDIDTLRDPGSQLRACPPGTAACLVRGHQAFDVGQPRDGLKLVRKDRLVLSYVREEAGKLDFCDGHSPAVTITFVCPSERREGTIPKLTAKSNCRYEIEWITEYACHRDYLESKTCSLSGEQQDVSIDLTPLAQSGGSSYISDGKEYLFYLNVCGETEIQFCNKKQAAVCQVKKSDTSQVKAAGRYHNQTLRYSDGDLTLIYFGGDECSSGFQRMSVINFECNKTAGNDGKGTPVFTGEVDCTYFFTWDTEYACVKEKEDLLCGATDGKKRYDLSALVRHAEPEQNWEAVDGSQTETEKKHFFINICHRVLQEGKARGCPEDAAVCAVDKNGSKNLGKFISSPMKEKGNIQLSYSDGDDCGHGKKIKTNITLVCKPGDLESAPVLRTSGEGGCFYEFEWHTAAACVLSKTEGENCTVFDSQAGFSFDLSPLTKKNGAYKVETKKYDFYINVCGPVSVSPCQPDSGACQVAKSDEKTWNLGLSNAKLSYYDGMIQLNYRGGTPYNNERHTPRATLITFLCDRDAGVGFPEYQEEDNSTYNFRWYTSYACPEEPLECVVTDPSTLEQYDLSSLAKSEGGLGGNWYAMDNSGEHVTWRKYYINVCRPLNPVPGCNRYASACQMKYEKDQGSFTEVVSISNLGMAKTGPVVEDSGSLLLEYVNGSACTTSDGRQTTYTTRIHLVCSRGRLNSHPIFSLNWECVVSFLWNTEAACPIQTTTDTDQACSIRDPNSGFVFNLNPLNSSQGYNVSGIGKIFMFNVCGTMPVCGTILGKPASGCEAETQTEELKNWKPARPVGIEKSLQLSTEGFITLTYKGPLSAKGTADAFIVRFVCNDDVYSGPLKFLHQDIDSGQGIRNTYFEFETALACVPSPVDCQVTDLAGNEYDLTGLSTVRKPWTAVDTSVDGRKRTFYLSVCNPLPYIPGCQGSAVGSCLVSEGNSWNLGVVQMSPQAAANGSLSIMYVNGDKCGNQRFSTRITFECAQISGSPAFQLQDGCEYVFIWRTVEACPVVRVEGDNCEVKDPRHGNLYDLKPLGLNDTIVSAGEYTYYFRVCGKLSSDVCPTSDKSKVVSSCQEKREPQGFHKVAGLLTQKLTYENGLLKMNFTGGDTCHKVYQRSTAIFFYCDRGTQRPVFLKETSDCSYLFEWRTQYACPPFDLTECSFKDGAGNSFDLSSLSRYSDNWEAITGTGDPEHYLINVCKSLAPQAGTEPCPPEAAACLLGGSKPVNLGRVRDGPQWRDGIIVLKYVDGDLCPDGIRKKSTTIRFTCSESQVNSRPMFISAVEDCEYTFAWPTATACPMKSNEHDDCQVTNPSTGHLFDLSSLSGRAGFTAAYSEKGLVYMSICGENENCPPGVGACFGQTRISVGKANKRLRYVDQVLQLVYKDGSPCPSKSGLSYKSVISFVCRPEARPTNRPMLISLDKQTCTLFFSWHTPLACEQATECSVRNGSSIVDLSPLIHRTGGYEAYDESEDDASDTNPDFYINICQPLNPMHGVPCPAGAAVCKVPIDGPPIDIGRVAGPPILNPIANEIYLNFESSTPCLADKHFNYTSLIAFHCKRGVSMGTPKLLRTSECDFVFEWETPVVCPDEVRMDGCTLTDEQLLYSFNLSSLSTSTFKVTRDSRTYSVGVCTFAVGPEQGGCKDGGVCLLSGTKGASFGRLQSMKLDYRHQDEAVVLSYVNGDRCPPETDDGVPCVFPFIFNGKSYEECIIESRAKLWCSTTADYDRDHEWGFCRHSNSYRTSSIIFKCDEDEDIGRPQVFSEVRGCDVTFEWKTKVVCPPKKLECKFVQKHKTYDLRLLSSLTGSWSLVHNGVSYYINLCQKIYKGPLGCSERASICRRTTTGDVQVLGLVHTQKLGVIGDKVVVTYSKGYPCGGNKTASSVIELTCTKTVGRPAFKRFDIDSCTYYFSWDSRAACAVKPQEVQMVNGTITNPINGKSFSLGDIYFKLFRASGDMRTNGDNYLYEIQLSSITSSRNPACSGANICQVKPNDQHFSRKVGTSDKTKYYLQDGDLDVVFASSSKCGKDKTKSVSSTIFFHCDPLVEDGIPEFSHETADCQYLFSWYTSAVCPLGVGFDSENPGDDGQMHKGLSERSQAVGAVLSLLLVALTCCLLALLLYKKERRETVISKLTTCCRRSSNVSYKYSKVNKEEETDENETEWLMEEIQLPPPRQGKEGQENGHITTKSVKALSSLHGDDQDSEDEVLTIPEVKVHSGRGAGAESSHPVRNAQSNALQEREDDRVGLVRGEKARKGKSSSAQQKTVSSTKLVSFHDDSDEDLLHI

[2] = molecular target: cation-independent mannose-6-phosphate/IGF-II receptor on GM4668 human skin fibroblasts (human) (UniProt P11717); remark: listed apart in the source
[3] = molecular target: cation-independent mannose-6-phosphate/IGF-II receptor on GM4668 human skin fibroblasts (human) (UniProt P11717); remark: listed apart in the source
[4] = molecular target: cation-independent mannose-6-phosphate/IGF-II receptor on GM4668 human skin fibroblasts (human) (UniProt P11717); remark: listed apart in the source

Molecule	% IGF-II inhibition of uptake [1]	+IGF-II Uptake (units/mg) [1]	Uptake (units/mg), 21 h [1]	% IGF-II + M6P inhibition of uptake [3]	% IGF-II inhibition of uptake [3]	% M6P inhibition of uptake [3]	+IGF-II (units/mg), uptake with excess IGF-II [3]	+IGF-II + M6P (units/mg), uptake with both inhibitors [3]	+M6P (units/mg), uptake with 8 mM M6P [3]	Uptake (units/mg), 22.5 h [3]	further results
HEK GUSΔC18-GILTΔ1-7 (from UniProt P08236 23-633)	77%	1210 units/mg	5190 units/mg	–	–	–	–	–	–	–	–
HEK GUS-GILTY27L (from UniProt P08236 23-651)	–	–	1510 units/mg	–	–	–	–	–	–	–	–
CHO GUS-GILTΔ1-7 (from UniProt P08236 23-651)	–	–	–	–	–	–	–	–	–	–	% IGF-II inhibition of uptake [2]: 73%; % M6P inhibition of uptake [2]: 28%; +IGF-II (units/mg), uptake with excess IGF-II [2]: 84 units/mg; +M6P (units/mg), uptake with excess M6P [2]: 223 units/mg; Uptake (units/mg), 18 h [2]: 310 units/mg
HEK GUS-GILTF19S (from UniProt P08236 23-651)	90.7%	439 units/mg	4730 units/mg	99.1%	86%	60%	217 units/mg	15 units/mg	952 units/mg	1590 units/mg	–
CHO GUSΔC18-GILTΔ1-7 (from UniProt P08236 23-633)	75%	1010 units/mg	4080 units/mg	100%	70%	60%	473 units/mg	0 units/mg	639 units/mg	1580 units/mg	% IGF-II inhibition of uptake [2]: 63%; % M6P inhibition of uptake [2]: 41%; +IGF-II (units/mg), uptake with excess IGF-II [2]: 258 units/mg; +M6P (units/mg), uptake with excess M6P [2]: 412 units/mg; Uptake (units/mg), 18 h [2]: 704 units/mg
GUS-IGF-II fusion protein (GUS-GILT), Leishmania-expressed	–	–	–	–	–	–	–	–	–	–	cell-associated GILT-GUS in GM4668 fibroblasts, no competitor (units/mg lysate) [2]: > 24; cell-associated GILT-GUS in GM4668 fibroblasts, with about 100-fold molar excess of IGF-II [2]: 5.4 U; cell-associated GUS activity in GM4668 fibroblasts, relative to unmodified GUS [2]: 10 fold
HEK GUS-GILT (from UniProt P08236 23-651)	–	–	1430 units/mg	–	–	–	–	–	–	–	–
HEK GUS-GILTF19SE12K (from UniProt P08236 23-651)	90.8%	388 units/mg	4230 units/mg	100%	98.2%	31%	22 units/mg	0 units/mg	846 units/mg	1230 units/mg	–
GILT-GUS with Δ1-7 and Y27L mutations in the IGF-II portion, Leishmania-expressed (from UniProt P08236 23-651)	–	–	–	–	–	–	–	–	–	–	cell-associated GUS activity in GM4668 fibroblasts, relative to unmodified GUS [2]: 5 fold
B1	–	–	–	–	–	–	–	–	–	–	% IGF-II inhibition of uptake [4]: 5%; % M6P inhibition of uptake [4]: 99.7%; % inhibition of uptake by excess IGF-II [4]: 4.5%; +IGF-II (units/mg), uptake with excess IGF-II [4]: 336 units/mg; +M6P (units/mg), uptake with excess M6P [4]: 1 units/mg; Uptake (units/mg), 18 h [4]: 352 units/mg
